According to US9969998B2, “Compositions of adenosine deaminase-2 (ADA2), variants thereof and methods of using same” (Halozyme, Inc., priority 2014, dated 2018):

Columns and labels:
[1] = Heparin-affinity chromatography (heparin-Sepharose, SDS-PAGE); assay type: binding; conditions: for Heparin Column Binding: compared to WT rHuADA2, 0.3 mg/mL protein
Method: To assess binding of variants to heparin, heparin-affinity chromatography was employed to identify heparin-bound variants. Heparin binding was tested by mixing 35 μL of rHuADA2 WT and variants with 20 μL heparin-Sepharose™ resin (GE Healthcare, Pittsburgh, Pa.; Cat. No. 17-0998-01), followed by incubating at room temperature for 30 min. The mixture was then centrifuged through a 0.22 μm centrifuge filter and the flow-through, containing the unbound protein, was collected for analysis on an SDS-PAGE gel. 35 μL of 1.5 M NaCl was added to heparin-Sepharose resin and incubated at room temperature (RT) for 10 min to elute the remaining heparin-bound protein from the heparin-Sepharose. Samples of purified WT rHuADA2 and tested variants, before and after mixing with the heparin-Sepharose resin, were analyzed by SDS-PAGE to compare the degree of heparin binding.

[2] = Heparin binding ELISA (heparin coated microtiter plate); conditions: 3 μM protein
Method: A 96-well plate was coated with 100 μL of 200 μg/mL heparin sodium salt (Calibochem, EMD Milipore, Billerica, Mass.; Cat. No. 375095) in Na2CO3 buffer (pH 9.6), overnight at 4° C. The wells were blocked with 5% milk in PBS, and washed 6 times with PBS. 3 μM of select rHuADA2 variants (see Table 20), WT rHuADA2 (positive control) and WT rHuADA1 (negative control) were added to the wells individually and incubated for 2 hours at room temperature, followed by washing 6 times with PBS. 100 μL of 1:1000 diluted horseradish peroxidase (HRP)-anti-FLAG antibody (Abcam, Cambridge, UK; Cat. No. Ab1238) was added to the wells to detect binding and incubated at room temperature for 1 hour. The ELISA reactions were developed by adding the 3,3′,5,5′-Tetramethylbenzidine (TMB) substrate solution (Pierce, Thermo Fisher Scientific, Rockford, Ill.) according the manufacturer's instructions and reading the optical density at 450 nm (OD450) on a plate reader.

[3] = Adenosine deaminase (ADA) enzymatic activity assay kit; assay type: biochemical; conditions: for adenosine deaminase activity mU/mL / ΔA/min, adenosine deaminase activity: protein diluted to 5 μg/mL, serially diluted 2 fold (Table 21); for % activity vs. WT: relative to rHuADA2 WT (Table 21)

heparin binding compared to WT [1] | Heparin Column Binding [1] | Average OD450, heparin binding ELISA ([2]; Set 1) | % activity vs. WT [3] [%] | Average OD450, heparin binding ELISA ([2]; Set 2) | Molecule | enzymatic activity relative to WT rHuADA2 [3] | adenosine deaminase activity mU/mL [3] [mU/mL] | ΔA/min, adenosine deaminase activity [3]
attenuated heparin binding | Reduced | 0.2 | 158.3 |  | K375D: ADA2 variant SEQ ID NO:23 (protein, human ADA2 K372D, mature numbering) IDETRAHLLLKEKMMRLGGRLVLNTKEELANERLMTLKIAEMKEAMRTLIFPPSMHFFQAKHLIERSQVFNILRMMPKGAALHLHDIGIVTMDWLVRNVTYRPHCHICFTPRGIMQFRFAHPTPRPSEKCSKWILLEDYRKRVQNVTEFDDSLLRNFTLVTQHPEVIYTNQNVVWSKFETIFFTISGLIHYAPVFRDYVFRSMQEFYEDNVLYMEIRARLLPVYELSGEHHDEEWSVKTYQEVAQKFVETHPEFIGIKIIYSDHRSKDVAVIAESIRMAMGLRIKFPTVVAGFDLVGHEDTGHSLHDYKEALMIPAKDGVKLPYFFHAGETDWQGTSIDRNILDALMLNTTRIGHGFALSKHPAVRTYSWKDDIPIEVCPISNQVLKLVSDLRNHPVATLMATGHPMVISSDDPAMFGAKGLSYDFYEVFMGIGGMKADLRTLKQLAMNSIKYSTLLESEKNTFMEIWKKRWDKFIADVATK | improved enzymatic activity | 123.5 | 53.7
attenuated heparin binding | Reduced |  | 163.2 | 0.26 | K455E: ADA2 variant SEQ ID NO:27 (protein, human ADA2 K452E, mature numbering) IDETRAHLLLKEKMMRLGGRLVLNTKEELANERLMTLKIAEMKEAMRTLIFPPSMHFFQAKHLIERSQVFNILRMMPKGAALHLHDIGIVTMDWLVRNVTYRPHCHICFTPRGIMQFRFAHPTPRPSEKCSKWILLEDYRKRVQNVTEFDDSLLRNFTLVTQHPEVIYTNQNVVWSKFETIFFTISGLIHYAPVFRDYVFRSMQEFYEDNVLYMEIRARLLPVYELSGEHHDEEWSVKTYQEVAQKFVETHPEFIGIKIIYSDHRSKDVAVIAESIRMAMGLRIKFPTVVAGFDLVGHEDTGHSLHDYKEALMIPAKDGVKLPYFFHAGETDWQGTSIDRNILDALMLNTTRIGHGFALSKHPAVRTYSWKKDIPIEVCPISNQVLKLVSDLRNHPVATLMATGHPMVISSDDPAMFGAKGLSYDFYEVFMGIGGMKADLRTLKQLAMNSIEYSTLLESEKNTFMEIWKKRWDKFIADVATK | improved enzymatic activity | 127.3 | 55.4
attenuated heparin binding | Reduced | 0.21 | 138.6 |  | K375E: ADA2 variant SEQ ID NO:24 (protein, human ADA2 K372E, mature numbering) IDETRAHLLLKEKMMRLGGRLVLNTKEELANERLMTLKIAEMKEAMRTLIFPPSMHFFQAKHLIERSQVFNILRMMPKGAALHLHDIGIVTMDWLVRNVTYRPHCHICFTPRGIMQFRFAHPTPRPSEKCSKWILLEDYRKRVQNVTEFDDSLLRNFTLVTQHPEVIYTNQNVVWSKFETIFFTISGLIHYAPVFRDYVFRSMQEFYEDNVLYMEIRARLLPVYELSGEHHDEEWSVKTYQEVAQKFVETHPEFIGIKIIYSDHRSKDVAVIAESIRMAMGLRIKFPTVVAGFDLVGHEDTGHSLHDYKEALMIPAKDGVKLPYFFHAGETDWQGTSIDRNILDALMLNTTRIGHGFALSKHPAVRTYSWKEDIPIEVCPISNQVLKLVSDLRNHPVATLMATGHPMVISSDDPAMFGAKGLSYDFYEVFMGIGGMKADLRTLKQLAMNSIKYSTLLESEKNTFMEIWKKRWDKFIADVATK | improved enzymatic activity | 108.1 | 47

Second part, the molecule before the results:

Molecule | heparin binding compared to WT [1] | Heparin Column Binding [1] | Average OD450, heparin binding ELISA ([2]; Set 1) | % activity vs. WT [3] [%] | Average OD450, heparin binding ELISA ([2]; Set 2) | enzymatic activity relative to WT rHuADA2 [3] | adenosine deaminase activity mU/mL [3] [mU/mL] | ΔA/min, adenosine deaminase activity [3]
K14A/R23A: ADA2 variant SEQ ID NO:55 (protein, human ADA2 K11A/R20A, mature numbering) IDETRAHLLLAEKMMRLGGALVLNTKEELANERLMTLKIAEMKEAMRTLIFPPSMHFFQAKHLIERSQVFNILRMMPKGAALHLHDIGIVTMDWLVRNVTYRPHCHICFTPRGIMQFRFAHPTPRPSEKCSKWILLEDYRKRVQNVTEFDDSLLRNFTLVTQHPEVIYTNQNVVWSKFETIFFTISGLIHYAPVFRDYVFRSMQEFYEDNVLYMEIRARLLPVYELSGEHHDEEWSVKTYQEVAQKFVETHPEFIGIKIIYSDHRSKDVAVIAESIRMAMGLRIKFPTVVAGFDLVGHEDTGHSLHDYKEALMIPAKDGVKLPYFFHAGETDWQGTSIDRNILDALMLNTTRIGHGFALSKHPAVRTYSWKKDIPIEVCPISNQVLKLVSDLRNHPVATLMATGHPMVISSDDPAMFGAKGLSYDFYEVFMGIGGMKADLRTLKQLAMNSIKYSTLLESEKNTFMEIWKKRWDKFIADVATK |  | Reduced |  | 124.2 |  |  | 96.9 | 42.1
K14A/R23A/K374A: ADA2 variant SEQ ID NO:56 (protein, human ADA2 K11A/R20A/K371A, mature numbering) IDETRAHLLLAEKMMRLGGALVLNTKEELANERLMTLKIAEMKEAMRTLIFPPSMHFFQAKHLIERSQVFNILRMMPKGAALHLHDIGIVTMDWLVRNVTYRPHCHICFTPRGIMQFRFAHPTPRPSEKCSKWILLEDYRKRVQNVTEFDDSLLRNFTLVTQHPEVIYTNQNVVWSKFETIFFTISGLIHYAPVFRDYVFRSMQEFYEDNVLYMEIRARLLPVYELSGEHHDEEWSVKTYQEVAQKFVETHPEFIGIKIIYSDHRSKDVAVIAESIRMAMGLRIKFPTVVAGFDLVGHEDTGHSLHDYKEALMIPAKDGVKLPYFFHAGETDWQGTSIDRNILDALMLNTTRIGHGFALSKHPAVRTYSWAKDIPIEVCPISNQVLKLVSDLRNHPVATLMATGHPMVISSDDPAMFGAKGLSYDFYEVFMGIGGMKADLRTLKQLAMNSIKYSTLLESEKNTFMEIWKKRWDKFIADVATK |  | Reduced |  | 93.3 |  |  | 72.8 | 31.7
R369D: ADA2 variant SEQ ID NO:32 (protein, human ADA2 R366D, mature numbering) IDETRAHLLLKEKMMRLGGRLVLNTKEELANERLMTLKIAEMKEAMRTLIFPPSMHFFQAKHLIERSQVFNILRMMPKGAALHLHDIGIVTMDWLVRNVTYRPHCHICFTPRGIMQFRFAHPTPRPSEKCSKWILLEDYRKRVQNVTEFDDSLLRNFTLVTQHPEVIYTNQNVVWSKFETIFFTISGLIHYAPVFRDYVFRSMQEFYEDNVLYMEIRARLLPVYELSGEHHDEEWSVKTYQEVAQKFVETHPEFIGIKIIYSDHRSKDVAVIAESIRMAMGLRIKFPTVVAGFDLVGHEDTGHSLHDYKEALMIPAKDGVKLPYFFHAGETDWQGTSIDRNILDALMLNTTRIGHGFALSKHPAVDTYSWKKDIPIEVCPISNQVLKLVSDLRNHPVATLMATGHPMVISSDDPAMFGAKGLSYDFYEVFMGIGGMKADLRTLKQLAMNSIKYSTLLESEKNTFMEIWKKRWDKFIADVATK |  | Reduced |  | 102.8 |  |  | 80.2 | 34.9
K14A/K374A: ADA2 variant SEQ ID NO:58 (protein, human ADA2 K11A/K371A, mature numbering) IDETRAHLLLAEKMMRLGGRLVLNTKEELANERLMTLKIAEMKEAMRTLIFPPSMHFFQAKHLIERSQVFNILRMMPKGAALHLHDIGIVTMDWLVRNVTYRPHCHICFTPRGIMQFRFAHPTPRPSEKCSKWILLEDYRKRVQNVTEFDDSLLRNFTLVTQHPEVIYTNQNVVWSKFETIFFTISGLIHYAPVFRDYVFRSMQEFYEDNVLYMEIRARLLPVYELSGEHHDEEWSVKTYQEVAQKFVETHPEFIGIKIIYSDHRSKDVAVIAESIRMAMGLRIKFPTVVAGFDLVGHEDTGHSLHDYKEALMIPAKDGVKLPYFFHAGETDWQGTSIDRNILDALMLNTTRIGHGFALSKHPAVRTYSWAKDIPIEVCPISNQVLKLVSDLRNHPVATLMATGHPMVISSDDPAMFGAKGLSYDFYEVFMGIGGMKADLRTLKQLAMNSIKYSTLLESEKNTFMEIWKKRWDKFIADVATK |  | Reduced |  | 100.5 |  |  | 78.4 | 34.1
